Results on one substance are retold here after patent publication US7521054.

The target of this test is mesothelin (UniProt Q13421). As to the kind of experiment: cell-based or functional assay.
Chain of UniProt Q13421 (Q13421 other isoform, or with tags, fused parts or gaps limits assumed): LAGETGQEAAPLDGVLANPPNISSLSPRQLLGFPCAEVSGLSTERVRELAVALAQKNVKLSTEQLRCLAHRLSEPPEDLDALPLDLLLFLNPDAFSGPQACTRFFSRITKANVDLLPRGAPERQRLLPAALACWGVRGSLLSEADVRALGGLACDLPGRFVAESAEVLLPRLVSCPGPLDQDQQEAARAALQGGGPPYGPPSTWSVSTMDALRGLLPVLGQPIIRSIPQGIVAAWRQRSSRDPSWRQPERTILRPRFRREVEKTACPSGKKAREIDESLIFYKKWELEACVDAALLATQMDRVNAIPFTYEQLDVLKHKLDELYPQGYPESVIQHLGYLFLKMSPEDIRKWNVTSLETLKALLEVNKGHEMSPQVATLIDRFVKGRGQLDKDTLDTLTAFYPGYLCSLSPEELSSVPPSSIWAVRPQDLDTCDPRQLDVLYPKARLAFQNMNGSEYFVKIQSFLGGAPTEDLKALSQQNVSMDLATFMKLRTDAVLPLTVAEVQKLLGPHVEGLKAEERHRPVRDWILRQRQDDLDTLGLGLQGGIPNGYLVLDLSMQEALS

The substance “SS1(dsFv)-PE38 (from UniProt P11439 278-389; P11439 406-638)” returned an IC50 (NG/ML), cytotoxic activity on A431-K5 cells of 0.63 ng/mL.
